How the values were obtained:
Experiment in all cases: holdup assay
Parameters in all cases: key: below the threshold = too weak to quantify, mostly under pKd 3.1 to 4
[1] = target: MAGI2_4, Q86UL8
[2] = target: T1, ARHGAP21, Q5T5U3
T1 sequence (Q5T5U3 45-169, limits assumed, looked up): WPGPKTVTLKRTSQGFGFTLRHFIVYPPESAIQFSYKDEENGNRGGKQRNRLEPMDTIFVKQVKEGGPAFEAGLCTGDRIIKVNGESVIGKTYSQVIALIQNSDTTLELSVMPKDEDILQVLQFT

[3] = target: IL16_1, Q14005
[4] = target: AHNAK1, Q09666
[5] = target: T2, RAPGEF6, Q8TEU7
T2 sequence (Q8TEU7 525-625, limits assumed, looked up): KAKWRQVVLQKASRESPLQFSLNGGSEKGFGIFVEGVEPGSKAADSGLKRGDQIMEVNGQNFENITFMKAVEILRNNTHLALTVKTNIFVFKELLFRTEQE

[6] = target: T3, MPDZ_10, O75970
T3 sequence (O75970 1624-1722, limits assumed, looked up): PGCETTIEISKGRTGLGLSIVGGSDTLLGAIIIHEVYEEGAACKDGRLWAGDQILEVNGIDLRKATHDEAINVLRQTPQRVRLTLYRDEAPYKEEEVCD

[7] = target: DLG1_3, Q12959
Sequence of DLG1_3, Q12959 (Q12959 457-571): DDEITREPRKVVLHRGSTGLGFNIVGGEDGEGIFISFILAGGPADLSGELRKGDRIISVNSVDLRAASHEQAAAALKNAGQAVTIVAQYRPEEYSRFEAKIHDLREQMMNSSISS

[8] = target: FRMPD2_2, Q68DX3
Sequence of FRMPD2_2, Q68DX3 (Q68DX3 944-1038): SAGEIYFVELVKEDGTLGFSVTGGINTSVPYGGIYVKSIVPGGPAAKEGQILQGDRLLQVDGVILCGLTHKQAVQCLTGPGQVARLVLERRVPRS

[9] = target: NHERF4_2, Q86UT5
Sequence of NHERF4_2, Q86UT5 (Q86UT5 220-308): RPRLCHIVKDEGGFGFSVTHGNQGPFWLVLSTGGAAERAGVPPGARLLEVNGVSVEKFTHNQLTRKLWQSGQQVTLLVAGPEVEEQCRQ

[10] = target: LNX1_1, Q8TBB1
Sequence of LNX1_1, Q8TBB1 (Q8TBB1 261-371): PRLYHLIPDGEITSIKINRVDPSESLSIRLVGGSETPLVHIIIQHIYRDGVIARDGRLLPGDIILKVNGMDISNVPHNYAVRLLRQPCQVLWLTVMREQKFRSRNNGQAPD

[11] = target: T4, RADIL, Q96JH8
T4 sequence (Q96JH8 971-1071, limits assumed, looked up): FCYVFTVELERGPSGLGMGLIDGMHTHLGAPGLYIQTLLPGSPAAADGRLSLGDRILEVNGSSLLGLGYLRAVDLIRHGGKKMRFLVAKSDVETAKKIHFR

[12] = target: NHERF4_1, Q86UT5-2
Sequence of NHERF4_1, Q86UT5-2 (Q86UT5 other isoform, or with tags, fused parts or gaps): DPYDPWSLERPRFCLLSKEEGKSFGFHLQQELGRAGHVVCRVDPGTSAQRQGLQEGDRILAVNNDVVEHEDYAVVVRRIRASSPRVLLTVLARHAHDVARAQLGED

[13] = target: GRASP, Q7Z6J2
Sequence of GRASP, Q7Z6J2 (Q7Z6J2 96-193): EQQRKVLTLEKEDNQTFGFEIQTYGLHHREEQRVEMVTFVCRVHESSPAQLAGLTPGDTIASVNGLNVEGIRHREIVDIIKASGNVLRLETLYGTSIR

[14] = target: LAP2, Q96RT1
Sequence of LAP2, Q96RT1 (Q96RT1 other isoform, or with tags, fused parts or gaps): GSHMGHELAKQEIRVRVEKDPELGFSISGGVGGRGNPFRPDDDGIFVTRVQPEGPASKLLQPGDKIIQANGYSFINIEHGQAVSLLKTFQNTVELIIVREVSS

[15] = target: T5, APBA1_1, Q02410
T5 sequence (Q02410 651-752, limits assumed, looked up): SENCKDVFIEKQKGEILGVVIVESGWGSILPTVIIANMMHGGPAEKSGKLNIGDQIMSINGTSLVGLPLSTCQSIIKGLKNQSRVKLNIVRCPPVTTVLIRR

[16] = target: T6, SHANK1, Q9Y566
T6 sequence (Q9Y566 658-767, limits assumed, looked up): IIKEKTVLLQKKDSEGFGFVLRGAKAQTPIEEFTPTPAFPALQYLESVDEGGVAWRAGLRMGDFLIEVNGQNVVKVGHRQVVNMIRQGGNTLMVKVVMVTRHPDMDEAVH

[17] = target: T7, PARD3B_1, Q8TEW8
T7 sequence (Q8TEW8 196-299, limits assumed, looked up): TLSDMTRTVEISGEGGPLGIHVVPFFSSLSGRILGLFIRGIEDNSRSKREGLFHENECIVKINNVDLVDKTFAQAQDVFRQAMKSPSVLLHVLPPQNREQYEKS

[18] = target: DLG5_1, Q8TDM6
Sequence of DLG5_1, Q8TDM6 (Q8TDM6 617-713): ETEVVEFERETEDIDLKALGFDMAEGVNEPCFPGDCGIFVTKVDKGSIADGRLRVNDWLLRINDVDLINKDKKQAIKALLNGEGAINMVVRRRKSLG

[19] = target: GOPC, Q9HD26
[20] = target: GRID2IP_1, A4D2P6
Sequence of GRID2IP_1, A4D2P6 (A4D2P6 1-87): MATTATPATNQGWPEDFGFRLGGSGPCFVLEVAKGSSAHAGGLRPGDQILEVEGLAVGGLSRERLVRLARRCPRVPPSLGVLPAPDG

[21] = target: T8, APBA2_1, Q99767
T8 sequence (Q99767 563-664, limits assumed, looked up): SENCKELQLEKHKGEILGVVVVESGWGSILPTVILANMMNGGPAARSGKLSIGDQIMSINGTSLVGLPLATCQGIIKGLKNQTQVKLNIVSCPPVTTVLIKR

[22] = target: Inadl_9, Q8NI35
Sequence of Inadl_9, Q8NI35 (Q8NI35 1530-1615): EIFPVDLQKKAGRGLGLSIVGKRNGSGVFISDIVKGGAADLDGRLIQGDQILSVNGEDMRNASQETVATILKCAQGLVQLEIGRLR

[23] = target: MAGI3_2, Q5TCQ9
Sequence of MAGI3_2, Q5TCQ9 (Q5TCQ9 398-503): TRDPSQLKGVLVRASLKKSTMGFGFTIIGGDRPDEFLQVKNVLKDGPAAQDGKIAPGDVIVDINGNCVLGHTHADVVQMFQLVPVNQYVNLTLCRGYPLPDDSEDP

[24] = target: T9, MPDZ_5, O75970
T9 sequence (O75970 695-796, limits assumed, looked up): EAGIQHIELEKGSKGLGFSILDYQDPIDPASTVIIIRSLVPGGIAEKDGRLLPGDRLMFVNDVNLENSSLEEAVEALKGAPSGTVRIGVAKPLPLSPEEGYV

[25] = target: SCRIB_1, Q14160
Sequence of SCRIB_1, Q14160 (Q14160 718-814): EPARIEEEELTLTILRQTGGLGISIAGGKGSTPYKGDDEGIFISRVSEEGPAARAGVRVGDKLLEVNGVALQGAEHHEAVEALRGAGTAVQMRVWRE

[26] = target: T10, MPDZ_12, O75970
T10 sequence (O75970 1857-1958, limits assumed, looked up): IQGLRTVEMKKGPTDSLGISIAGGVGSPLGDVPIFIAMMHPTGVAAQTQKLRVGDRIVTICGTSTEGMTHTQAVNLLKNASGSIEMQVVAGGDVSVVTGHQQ

[27] = plain residues with an end cap or a label only (N-terminal biotin on a linker: ahx)
[28] = plain residues with an end cap or a label only (N-terminal biotin on a linker: ttds)

Sequence of IL16_1, Q14005 (Q14005 210-306): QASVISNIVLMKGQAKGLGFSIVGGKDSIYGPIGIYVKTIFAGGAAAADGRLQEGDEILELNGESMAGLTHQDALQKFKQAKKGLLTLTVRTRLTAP
Sequence of AHNAK1, Q09666 (Q09666 4-100): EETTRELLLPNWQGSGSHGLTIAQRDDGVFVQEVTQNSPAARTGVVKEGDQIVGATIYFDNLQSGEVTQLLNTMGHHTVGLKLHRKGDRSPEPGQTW
Sequence of MAGI2_4, Q86UL8 (Q86UL8 772-865): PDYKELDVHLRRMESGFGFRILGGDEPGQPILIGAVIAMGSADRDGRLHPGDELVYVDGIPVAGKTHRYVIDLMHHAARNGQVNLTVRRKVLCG

Binder: KTSAHHATFV [RGS12, O14924]
- pKd [1, 27]: 4.13
- pKd [2, 27]: below the threshold
- pKd [3, 27]: below the threshold
- pKd [4, 27]: below the threshold
- pKd [5, 27]: below the threshold
- pKd [6, 27]: 3.98
- pKd [7, 27]: below the threshold
- pKd [8, 27]: 4.72
- pKd [9, 27]: below the threshold
- pKd [10, 27]: 4.21
- pKd [11, 27]: 5.28
- pKd [12, 27]: below the threshold
- pKd [13, 27]: 4.12
- pKd [14, 27]: 4.34
- pKd [15, 27]: below the threshold
- pKd [16, 27]: below the threshold
- pKd [17, 27]: below the threshold
- pKd [18, 27]: below the threshold
- pKd [19, 27]: 3.53
- pKd [20, 27]: below the threshold
- pKd [21, 27]: below the threshold
- pKd [22, 27]: 4.42
- pKd [23, 27]: 4.72
- pKd [24, 27]: 3.58
- pKd [25, 27]: 3.8
- pKd [26, 27]: 3.78

Binder: MERLRVETDV [ARHGEF16, Q5VV41]
- pKd [1, 28]: 3.99
- pKd [2, 28]: 3.63
- pKd [3, 28]: below the threshold
- pKd [4, 28]: 3.6
- pKd [5, 28]: below the threshold
- pKd [6, 28]: 3.71
- pKd [7, 28]: 3.86
- pKd [8, 28]: 3.74
- pKd [9, 28]: below the threshold
- pKd [10, 28]: 4.03
- pKd [11, 28]: below the threshold
- pKd [12, 28]: below the threshold
- pKd [13, 28]: below the threshold
- pKd [14, 28]: 4.39
- pKd [15, 28]: below the threshold
- pKd [16, 28]: below the threshold
- pKd [17, 28]: below the threshold
- pKd [18, 28]: below the threshold
- pKd [19, 28]: 3.84
- pKd [20, 28]: below the threshold
- pKd [21, 28]: below the threshold
- pKd [22, 28]: below the threshold
- pKd [23, 28]: 4.6
- pKd [24, 28]: 3.6
- pKd [25, 28]: 4.58
- pKd [26, 28]: below the threshold

Binder: HIVEALETDV [PBK, Q96KB5]
- pKd [1, 28]: 4.4
- pKd [2, 28]: 3.91
- pKd [3, 28]: 3.97
- pKd [4, 28]: below the threshold
- pKd [5, 28]: below the threshold
- pKd [6, 28]: below the threshold
- pKd [7, 28]: below the threshold
- pKd [8, 28]: 4.66
- pKd [9, 28]: below the threshold
- pKd [10, 28]: 4.51
- pKd [11, 28]: below the threshold
- pKd [12, 28]: below the threshold
- pKd [13, 28]: below the threshold
- pKd [14, 28]: 5.04
- pKd [15, 28]: below the threshold
- pKd [16, 28]: below the threshold
- pKd [17, 28]: below the threshold
- pKd [18, 28]: below the threshold
- pKd [19, 28]: below the threshold
- pKd [20, 28]: below the threshold
- pKd [21, 28]: below the threshold
- pKd [22, 28]: below the threshold
- pKd [23, 28]: 4.29
- pKd [24, 28]: below the threshold
- pKd [25, 28]: 5.32
- pKd [26, 28]: below the threshold
